The results in this text go back to patent publication US20230103704A1, “HUMAN ANTI-IN[…] FOR THE […] OF IN[…] ISSUES” (priority 2020, published 2023).

The series is classed as physicochemical. To be noted: for MMAD / released dosage at the mouthpiece as share of the nominal value / released dosage: 0.1 mg/ml in physiological saline; for released dosage: at the mouthpiece; for time of aerosol release: corresponds to 30 strokes/breaths. How it is done: Aviptadil can be obtained, e.g., from Bachem AG, Bubendorf, Switzerland, in GMP quality.
The experimental procedure was carried out pursuant to Ph. Eur. 2.9.44 (Preparations for Nebulisation: Characterisation). A cascade impactor (Next Generation Impactor (NGI), Copley Scientific Ltd., Nottingham, UK) was used to determine the respective percentage for each fraction of the nebulized particles.
The thus generated aerosol was delivered to the cascade impactor by means of a mouthpiece (SK-211, NEBU-TEC, Eisenfeld, Germany).
The nebulization chamber (yellow stamp, 250 μl liquid discharge) was filled. The puff profile configured at the breath simulator was chosen in such a way that a correct simulation of inhalation by means of the nebulizer was ensured. The corresponding time was recorded.
Single values obtained for each cascade were added. […] MMAD, FPF and FPM were calculated from the obtained values: […]

Consider “Ac-Ser-Tyr-Ser-Met-Glu-His-Phe-Arg-Trp-Gly-Lys-Pro-Val-NH2 [α-melanocyte stimulating hormone]”, for which the MMAD is reported as 3.11 μm, the “released dosage at the mouthpiece as share of the nominal value” (“released dosage at the mouthpiece” below) was 45%, the released dosage is reported as 0.045 mg and the “time of aerosol release” value came to 3 min.
Take Colistin [reference compound]: the MMAD is 3.61 μm, the “released dosage at the mouthpiece” value is reported as 75%, the released dosage was found to be 0.075 mg and the “time of aerosol release” value was 3 min.
Consider “Gly-Leu-Ser-Lys-Gly-Cys-Phe-Gly-Leu-Lys-Leu-Asp-Arg-Ile-Gly-Ser-Met-Ser-Gly-Leu-Gly-Cys [C-type natriuretic peptide]”, for which the MMAD is 3.37 μm, the “released dosage at the mouthpiece” value is 77%, the released dosage stood at 0.077 mg and the “time of aerosol release” value is listed as 3 min.
Consider “His-Ser-Asp-Gly-Ile-Phe-Thr-Asp-Ser-Tyr-Ser-Arg-Tyr-Arg-Lys-Gln-Met-Ala-Val-Lys-Lys-Tyr-Leu-Ala-Ala-Val-Leu-Gly-Lys-Arg-Tyr-Lys-Gln-Arg-Val-Lys-Asn-Lys [PACAP-38]”, for which the MMAD is listed as 3.25 μm, the “released dosage at the mouthpiece” value was 58%, the released dosage is listed as 0.058 mg and the “time of aerosol release” value is on record as 3 min.
The corresponding values for “Ser-Pro-Lys-Met-Val-Gln-Gly-Ser-Gly-Cys-Phe-Gly-Arg-Lys-Met-Asp-Arg-Ile-Ser-Ser-Ser-Ser-Gly-Leu-Gly-Cys-Lys-Val-Leu-Arg-Arg-His [B-type natriuretic peptide]” are 3.46 μm, 69%, 0.069 mg and 3 min.
The corresponding values for “Tyr-Arg-Gln-Ser-Met-Asn-Asn-Phe-Gln-Gly-Leu-Arg-Ser-Phe-Gly-Cys-Arg-Phe-Gly-Thr-Cys-Thr-Val-Gln-Lys-Leu-Ala-His-Gln-Ile-Tyr-Gln-Phe-Thr-Asp-Lys-Asp-Lys-Asp-Asn-Val-Ala-Pro-Arg-Ser-Lys-Ile-Ser-Pro-Gln-Gly-Tyr [adrenomedullin]” are 3.41 μm, 53%, 0.053 mg and 3 min.
The matching figures for “relaxin-3: human relaxin isoform, heterodimer of 51 amino acids, subunit 1 SEQ ID NO: 12 and subunit 2 SEQ ID NO: 13”: 3.36 μm, 49%, 0.049 mg and 3 min.

B1: dornase alfa: recombinant human deoxyribonuclease I, polypeptide produced in CHO cells, comparative example (protein, UniProt P24855 23-282, looked up)
Deoxyribonuclease-1: LKIAAFNIQTFGETKMSNATLVSYIVQILSRYDIALVQEVRDSHLTAVGKLLDNLNQDAPDTYHYVVSEPLGRNSYKERYLFVYRPDQVSAVDSYYYDDGCEPCGNDTFNREPAIVRFFSRFTEVREFAIVPLHAAPGDAVAEIDALYDVYLDVQEKWGLEDVMLMGDFNAGCSYVRPSQWSSIRLWTSPTFQWLIPDSADTTATPTHCAYDRIVVAGMLLRGAVVPDSALPFNFQAAYGLSDQLAQAISDHYPVEVMLK
With B1, the MMAD came to 3.72 μm, the “released dosage at the mouthpiece” value came to 65%, the released dosage is 0.065 mg and the “time of aerosol release” value is on record as 3 min.

B2: interferon gamma: human cytokine of 17 kD, 138 amino acids, SEQ ID NO: 14 (protein, listed as Homo sapiens)
chain: QDPYVKEAENLKKYFNAGHSDVADNGTLFLGILKNWKEESDRKIMQSQIVSFYFKLFKNFKDDQSIQKSVETIKEDMNVKFFNSNKKKRDDFEKLTNYSVTDLNVQRKAIHELIQVMAELSPAAKTGKRKRSQMLFRG
Take B2: the MMAD is on record as 3.46 μm, the “released dosage at the mouthpiece” value amounted to 95%, the released dosage was 0.045 mg and the “time of aerosol release” value is given as 3 min.
